# Data: article PMC10397247
# Columns and labels:
# 4H968-bH = target: T1, 4H968-bH; test: two-hybrid library CCNG1;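 also: natural log of median RNA to DNA barcode read ratio; higher means stronger binding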
# T1 chain: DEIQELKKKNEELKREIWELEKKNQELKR
# 4H780-bH = target: T2, 4H780-bH; test: two-hybrid library CCNG1;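 also: natural log of median RNA to DNA barcode read ratio; higher means stronger binding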
# T2 chain: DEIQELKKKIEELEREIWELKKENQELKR
# 4H797-bH = target: T3, 4H797-bH; test: two-hybrid library CCNG1;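 also: natural log of median RNA to DNA barcode read ratio; higher means stronger binding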
# T3 chain: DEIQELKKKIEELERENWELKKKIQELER
# 4H883-bH = target: T4, 4H883-bH; test: two-hybrid library CCNG1;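 also: natural log of median RNA to DNA barcode read ratio; higher means stronger binding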
# T4 chain: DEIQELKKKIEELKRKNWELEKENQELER
# 4H953-bH = target: T5, 4H953-bH; test: two-hybrid library CCNG1;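 also: natural log of median RNA to DNA barcode read ratio; higher means stronger binding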
# T5 chain: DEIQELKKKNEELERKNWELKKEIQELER
# 4H967-bH = target: T6, 4H967-bH; test: two-hybrid library CCNG1;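 also: natural log of median RNA to DNA barcode read ratio; higher means stronger binding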
# T6 chain: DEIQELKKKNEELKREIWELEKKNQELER
# 4H855-bH = target: T7, 4H855-bH; test: two-hybrid library CCNG1
# T7 chain: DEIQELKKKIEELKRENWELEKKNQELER
# 4H918-bH = target: T8, 4H918-bH; test: two-hybrid library CCNG1
# T8 chain: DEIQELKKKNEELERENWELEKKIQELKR
# 4H754-bH = target: T9, 4H754-bH; test: two-hybrid library CCNG1
# T9 chain: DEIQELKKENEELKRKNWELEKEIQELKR
# 4H908-bH = target: T10, 4H908-bH; test: two-hybrid library CCNG1
# T10 chain: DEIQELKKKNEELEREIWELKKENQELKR
# 4H56-AA = target: T11, 4H56-AA; test: two-hybrid library CCmax; details: mean of both orientations
# T11 chain: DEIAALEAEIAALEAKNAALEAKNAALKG
# 4H452-AA = target: T12, 4H452-AA; test: two-hybrid library CCmax; details: mean of both orientations
# T12 chain: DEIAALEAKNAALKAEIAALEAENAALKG
# 4H_APH = target: T13, 4H_APH; test: two-hybrid library CCmax; details: mean of both orientations
# T13 chain: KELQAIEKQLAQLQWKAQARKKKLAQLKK
# 4H_BCR = target: T14, 4H_BCR; test: two-hybrid library CCmax; details: mean of both orientations
# T14 chain: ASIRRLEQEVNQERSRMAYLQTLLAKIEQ
# 4H_GCN4 = test: two-hybrid library CCmax; details: mean of both orientations
# 4H_GCN4, sequence (chain, as listed by the source): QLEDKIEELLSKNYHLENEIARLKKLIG
# 4H347-AA = target: T15, 4H347-AA; test: two-hybrid library CCmax; details: mean of both orientations
# T15 chain: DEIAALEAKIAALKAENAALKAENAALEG
# GCN2_T = test: two-hybrid library CCmax
# 4H3438-AA = target: T16, 4H3438-AA; test: two-hybrid library CCmax; details: mean of both orientations
# T16 chain: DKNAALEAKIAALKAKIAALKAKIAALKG
# 4H406-AA = target: T17, 4H406-AA; test: two-hybrid library CCmax; details: mean of both orientations
# T17 chain: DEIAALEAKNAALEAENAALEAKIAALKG
# 4H3073-AA = target: T18, 4H3073-AA; test: two-hybrid library CCmax
# T18 chain: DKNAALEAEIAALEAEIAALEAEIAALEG
# 4H883-bN = target: T19, 4H883-bN; test: two-hybrid library CCNG1
# T19 chain: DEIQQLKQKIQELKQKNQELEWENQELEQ
# 4H797-bN = target: T20, 4H797-bN; test: two-hybrid library CCNG1
# T20 chain: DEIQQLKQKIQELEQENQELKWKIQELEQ
# 4H908-bN = target: T21, 4H908-bN; test: two-hybrid library CCNG1
# T21 chain: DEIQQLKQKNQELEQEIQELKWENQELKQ
# 4H918-bN = target: T22, 4H918-bN; test: two-hybrid library CCNG1
# T22 chain: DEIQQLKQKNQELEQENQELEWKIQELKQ
# 4H967-bN = target: T23, 4H967-bN; test: two-hybrid library CCNG1
# T23 chain: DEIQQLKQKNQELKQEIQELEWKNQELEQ
# 4H968-bN = target: T24, 4H968-bN; test: two-hybrid library CCNG1
# T24 chain: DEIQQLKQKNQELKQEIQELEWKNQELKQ
# 4H953-bN = target: T25, 4H953-bN; test: two-hybrid library CCNG1
# T25 chain: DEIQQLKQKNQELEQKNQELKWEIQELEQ
# 4H780-bN = target: T26, 4H780-bN; test: two-hybrid library CCNG1
# T26 chain: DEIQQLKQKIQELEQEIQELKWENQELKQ
# 4H855-bN = target: T27, 4H855-bN; test: two-hybrid library CCNG1
# T27 chain: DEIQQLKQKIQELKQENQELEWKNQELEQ
# 4H754-bN = target: T28, 4H754-bN; test: two-hybrid library CCNG1
# T28 chain: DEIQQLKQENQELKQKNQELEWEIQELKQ
# 4H968-bA = target: T29, 4H968-bA; test: two-hybrid library CCNG1
# T29 chain: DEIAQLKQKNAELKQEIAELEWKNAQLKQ
# 4H953-bA = target: T30, 4H953-bA; test: two-hybrid library CCNG1
# T30 chain: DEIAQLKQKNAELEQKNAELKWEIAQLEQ
# 4H855-bA = target: T31, 4H855-bA; test: two-hybrid library CCNG1
# T31 chain: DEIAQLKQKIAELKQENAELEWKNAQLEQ
# 4H918-bA = target: T32, 4H918-bA; test: two-hybrid library CCNG1
# T32 chain: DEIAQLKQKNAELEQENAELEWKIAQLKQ
# 4H797-bA = target: T33, 4H797-bA; test: two-hybrid library CCNG1
# T33 chain: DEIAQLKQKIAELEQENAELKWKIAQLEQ
# 4H780-bA = target: T34, 4H780-bA; test: two-hybrid library CCNG1
# T34 chain: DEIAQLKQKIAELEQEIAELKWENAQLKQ
# APC6088-AA = target: T35, APC6088-AA; test: two-hybrid library CCmax; details: mean of both orientations
# T35 chain: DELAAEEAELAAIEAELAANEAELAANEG
# APC5531-AA = target: T36, APC5531-AA; test: two-hybrid library CCmax; details: mean of both orientations
# T36 chain: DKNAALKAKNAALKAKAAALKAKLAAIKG
# APC9291-AA = target: T37, APC9291-AA; test: two-hybrid library CCmax; details: mean of both orientations
# T37 chain: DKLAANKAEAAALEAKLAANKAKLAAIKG
# APC8516-AA = target: T38, APC8516-AA; test: two-hybrid library CCmax; details: mean of both orientations
# T38 chain: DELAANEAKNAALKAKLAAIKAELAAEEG
# APC9182-AA = target: T39, APC9182-AA; test: two-hybrid library CCmax; details: mean of both orientations
# T39 chain: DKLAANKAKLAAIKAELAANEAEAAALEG
# APC7524-AA = target: T40, APC7524-AA; test: two-hybrid library CCmax; details: mean of both orientations
# T40 chain: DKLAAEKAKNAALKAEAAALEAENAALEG
# APC9806-AA = target: T41, APC9806-AA; test: two-hybrid library CCmax; details: mean of both orientations
# T41 chain: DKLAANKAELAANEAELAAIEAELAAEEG
# APC9141-AA = target: T42, APC9141-AA; test: two-hybrid library CCmax; details: mean of both orientations
# T42 chain: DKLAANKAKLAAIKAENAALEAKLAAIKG
# APC8401-AA = target: T43, APC8401-AA; test: two-hybrid library CCmax; details: mean of both orientations
# T43 chain: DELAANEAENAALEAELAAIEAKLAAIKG
# APC542-AA = target: T44, APC542-AA; test: two-hybrid library CCmax
# T44 chain: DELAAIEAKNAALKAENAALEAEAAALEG
# 4H932-bA = target: T45, 4H932-bA; test: two-hybrid library CCNG1
# T45 chain: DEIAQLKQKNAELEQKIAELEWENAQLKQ
# 4H949-bA = target: T46, 4H949-bA; test: two-hybrid library CCNG1
# T46 chain: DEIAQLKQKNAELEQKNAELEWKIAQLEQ
# 4H796-bA = target: T47, 4H796-bA; test: two-hybrid library CCNG1
# T47 chain: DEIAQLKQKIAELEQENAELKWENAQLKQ
# 4H730-bA = target: T48, 4H730-bA; test: two-hybrid library CCNG1
# T48 chain: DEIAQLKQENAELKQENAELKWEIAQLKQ
# 4H741-bA = target: T49, 4H741-bA; test: two-hybrid library CCNG1
# T49 chain: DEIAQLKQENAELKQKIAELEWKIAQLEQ
# APC9096-AA = target: T50, APC9096-AA; test: two-hybrid library CCmax; details: mean of both orientations
# T50 chain: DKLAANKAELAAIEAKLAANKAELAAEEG
# APC8910-AA = target: T51, APC8910-AA; test: two-hybrid library CCmax; details: mean of both orientations
# T51 chain: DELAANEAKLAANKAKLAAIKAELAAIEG
# APC6108-AA = target: T52, APC6108-AA; test: two-hybrid library CCmax
# T52 chain: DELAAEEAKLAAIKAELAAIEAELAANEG
# APC7099-AA = target: T53, APC7099-AA; test: two-hybrid library CCmax; details: mean of both orientations
# T53 chain: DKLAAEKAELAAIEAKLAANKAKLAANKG
# APC9319-AA = target: T54, APC9319-AA; test: two-hybrid library CCmax; details: mean of both orientations
# T54 chain: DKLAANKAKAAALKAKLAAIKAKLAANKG
# APC8191-AA = target: T55, APC8191-AA; test: two-hybrid library CCmax; details: mean of both orientations
# T55 chain: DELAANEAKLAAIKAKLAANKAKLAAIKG
# 4H741-bH = target: T56, 4H741-bH; test: two-hybrid library CCNG1
# T56 chain: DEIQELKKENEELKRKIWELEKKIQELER
binder,measurement,setting,value
DEIQELKKENEELKRKNWELEKEIQELKR [4H754-bH],interaction score,4H968-bH,-0.182
same,interaction score,4H780-bH,-0.00466
same,interaction score,4H797-bH,-0.0415
same,interaction score,4H883-bH,-0.29
same,interaction score,4H953-bH,0.539
same,interaction score,4H967-bH,-0.713
same,interaction score,4H855-bH,-0.362
same,interaction score,4H918-bH,0.604
same,interaction score,4H754-bH,1.36
same,interaction score,4H908-bH,0.329
DKNAALEAEIAALEAEIAALEAEIAALEG [4H3073-AA],interaction score,4H56-AA,-1.28
same,interaction score,4H452-AA,-1.22
same,interaction score,4H_APH,0.197
same,interaction score,4H_BCR,-1.37
same,interaction score,4H_GCN4,-0.626
same,interaction score,4H347-AA,-1.33
same,interaction score,GCN2_T,-1.05
same,interaction score,4H3438-AA,1.51
same,interaction score,4H406-AA,-1.6
same,interaction score,4H3073-AA,-0.701
DEIQQLKQENQELKQKNQELEWEIQELKQ [4H754-bN],interaction score,4H883-bN,-1.38
same,interaction score,4H797-bN,-1.55
same,interaction score,4H908-bN,-1.55
same,interaction score,4H918-bN,-1.04
same,interaction score,4H967-bN,-0.968
same,interaction score,4H968-bN,-0.3
same,interaction score,4H953-bN,-1.42
same,interaction score,4H780-bN,0.164
same,interaction score,4H855-bN,-0.508
same,interaction score,4H754-bN,0.447
DEIAQLKQKIAELEQEIAELKWENAQLKQ [4H780-bA],interaction score,4H968-bA,-1.3
same,interaction score,4H953-bA,-0.243
same,interaction score,4H855-bA,-0.574
same,interaction score,4H918-bA,-0.303
same,interaction score,4H797-bA,-0.749
same,interaction score,4H780-bA,1.22
DELAAIEAKNAALKAENAALEAEAAALEG [APC542-AA],interaction score,APC6088-AA,-2.13
same,interaction score,APC5531-AA,-1.88
same,interaction score,APC9291-AA,-1.54
same,interaction score,APC8516-AA,-1.5
same,interaction score,APC9182-AA,-1.84
same,interaction score,APC7524-AA,-2
same,interaction score,APC9806-AA,-1.91
same,interaction score,APC9141-AA,-1.64
same,interaction score,APC8401-AA,-1.89
same,interaction score,APC542-AA,-1.57
DEIAQLKQENAELKQENAELKWEIAQLKQ [4H730-bA],interaction score,4H932-bA,-0.52
same,interaction score,4H949-bA,-0.437
same,interaction score,4H796-bA,-0.666
same,interaction score,4H730-bA,1.25
DEIAQLKQENAELKQKIAELEWKIAQLEQ [4H741-bA],interaction score,4H741-bA,0.341
DEIQELKKKIEELEREIWELKKENQELKR [4H780-bH],interaction score,4H968-bH,-0.28
same,interaction score,4H780-bH,1.6
same,interaction score,4H797-bH,-0.654
same,interaction score,4H953-bH,-0.153
same,interaction score,4H855-bH,0.0924
same,interaction score,4H918-bH,0.556
DELAAEEAKLAAIKAELAAIEAELAANEG [APC6108-AA],interaction score,APC9096-AA,-1.73
same,interaction score,APC8910-AA,-2.2
same,interaction score,APC6108-AA,-1.61
same,interaction score,APC7099-AA,-1.52
same,interaction score,APC9319-AA,-1.1
same,interaction score,APC8191-AA,-1.6
DEIQQLKQKIQELEQEIQELKWENQELKQ [4H780-bN],interaction score,4H797-bN,-0.0265
same,interaction score,4H918-bN,-0.346
same,interaction score,4H968-bN,-2.05
same,interaction score,4H953-bN,-0.748
same,interaction score,4H780-bN,1.99
same,interaction score,4H855-bN,-0.732
DEIQELKKENEELKRKIWELEKKIQELER [4H741-bH],interaction score,4H741-bH,1.26
